This note sets out measurements from US20210340276A1 (Astellas, published 2021).

The experiment concerns the target T1, human cancer-specific MUC1 (on breast cancer cell line T-47D cells) (human, UniProt P15941 24-1255, cancer-specific incomplete O-glycosylation (T, Tn, 2,3ST) of the tandem repeat, as described in the background).
T1 construct: whole, on cells; cells fixed in formalin; also called Mucin 1
Kind of experiment: Cell ELISA on formalin-fixed T-47D cells, HRP anti-human Igκ detection, luminescence; reference 1B2 Fab. As to the method: Specifically, breast cancer cell line T-47D cells (purchasable from ATCC; HTB-133) expressing human cancer-specific MUC1 were inoculated at 0.75×10⁴ cells per well to a 96-well ELISA plate coated with collagen I, and cultured overnight. […] Then, a horseradish peroxidase (HRP)-labeled goat anti-human Igκ antibody (Southern Biotechnology Associates, Inc.) was reacted as a secondary antibody. ECL Prime Western Blotting Detection Reagent (GE Healthcare Japan Corp.) was added thereto for luminescence, and the degree of the luminescence was examined.
A general note: An ELISA detects its analyte on a solid surface through an enzyme-linked reagent.

B1: P10-1 Fab (Fab, V domains shown)
VH: QVQLVQSGAEVKKPGASVKVSCKASGYTFTNYGLSWVRQAPGQGLEWMGENHPGSGIIYHNEKFRGRVTLTADRSTSTAYMELSSLRSEDTAVYYCARSSGTRGFAYWGQGTLVTVSS
VL: DVVMTQTPLSLSVTPGQPASISCRSSQSIVHSNGNTYLEWYLQKPGQSPQLLIYRVSNRFSGVPDRFSGSGSGTDFTLKISRVEAEDVGVYYCFQGSHGPWTFGQGTKLEIKR
notes: expressed in Expi293F cells, purified with KappaSelect; also called anti-human MUC1 antibody Fab fragment P10-1
Consider B1, for which the “fold binding activity compared to 1B2 Fab” value was no less than 10 times.

B2: P10-2 Fab (Fab, V domains shown)
VH: QVQLVQSGAEVKKPGASVKVSCKASGYTFTNYGLSWVRQAPGQGLEWMGENHPGSGIIYHNEKFRGRVTLTADRSTSTAYMELSSLRSEDTAVYYCARSSGTRGFDYWGQGTLVTVSS
VL: DVVMTQTPLSLSVTPGQPASISCRSSQSIVHSNGNTYLEWYLQKPGQSPQLLIYRVSNRFSGVPDRFSGSGSGTDFTLKISRVEAEDVGVYYCFQGSHGPWTFGQGTKLEIKR
modifications: heavy chain N-terminal glutamine modified into pyroglutamic acid in a great majority of purified antibodies (Example 2)
notes: expressed in Expi293F cells, purified with KappaSelect; also called anti-human MUC1 antibody Fab fragment P10-2
For B2, the “fold binding activity compared to 1B2 Fab” value is no less than 10 times.
